Measurements reported in the nanobody polyreactivity screen of Harvey et al. (2022).

Assay: yeast display, Sf9 membrane polyspecificity reagent, FACS + sequencing; frameworks hold sequencing errors
Summary of the method: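 In a synthetic yeast display library (Saccharomyces cerevisiae BJ5465), nanobody expression was induced with galactose for 36–48 hours. FACS gates were set low and high (top ~1%) using anti-HA fluorescence for expression and streptavidin fluorescence for binding of the Sf9 membrane reagent. Each polyreactivity label is drawn from the gate of origin.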

| Sequence | polyreactivity (PSR sort gate) |
| --- | --- |
| QVQLVEAGGGLVQAGGSLRLSCAASGGTFNSNAMGWYRQAPGKERELGASITWRGGTYYADSVKGRFTISRDNAKNTVYLQMNSLKPEDTAVYYCAARGTIPGIHWIYYYWGQGTQVTVSS | high polyreactivity |
| QVQLVESGGGLVQAGGSLRLSCAASGITFGEYAMGWYRQAPGKERQLVAAITTSGTSTYYADSVKGRFTISRDNAKNTDYLQMNSLKPEDTAVYYCAAYSRAAAGFYSSRRDYYWGQGTQVSVSS | low polyreactivity |
| QVQLVESGGGLVQAGGSLRLSCAASGRIFHRNAMGWYRQAPGQERELVARITRSGTSTYYADSVKGRFTISRDNAKNTVYLQMNSLKPEDTAVYYCAADNASPSLGEYNYWGQGTQVTVSS | low polyreactivity |
| QVQLVESGGGLVQAGGSLRLSCAASGYTFWDYTMGWYRQAPGKEREFVAAINWSGGSTYYADSVKGRFTISRDNAKNTVYLQMNSLKPEDTAVYYCAARRGGRRGYDYWGQGTQVTVSS | high polyreactivity |
| QVQHVESGGGLVQAGGSLRLSSAASGFTFNRYAMGWNSQAPGKESELVATITSGGNTYYADSVKGRFTLSRDNAKNTVYLEMNTLKPEDTAVYYCNNRGWYSVYRRDYWGQGTQVTVSS | high polyreactivity |
| QVQLGESGGGLVPAGGSLRLSCAASGGTFKTNAMGWYRQAPGKERELVAAITGSGTSTYYADSVKGRFTISRDNAKNTVYLHMNSLKPEDTAVYYCAADNLYHPGIGDDYWGQGTQVTVSS | low polyreactivity |
| QVQLVESGGGLVQAGGSLRLSCAASGRTFLAYAMGWYRQAPGKERELVAAISSSGSTTYYADSVKGRFTISRDNAKNTVYLQMNSLKPEDTAVYYCAASNGYRSSYYRYDYWGQGTQVTVSS | low polyreactivity |
| QVQLVESGGGLVQAGGSLRLSCAASGRTFWKYVMGWYRQAPGKERELVAVISRPAGSTYYADSVKGRFTISRDNAKNTVYLQMNSLKPEDTAVYYCAKRPKNKPVLGDYDQWGQGTQVTVSS | low polyreactivity |
| QVQLVESGGGLVQAGGSLRLSCAASGSIFDSYVMGWYRHAPGKERELVAAITYSGGSTYADSVKGRFTISRDNAQNTVDLQMNSLKPEDTAVYYCAAASSFYLYLLEDYWGQGTQVTVSS | low polyreactivity |
| QVQLVESGGGLVQAGGSLRLSCAATGRIFNPNAMGWYRQAPGKERELVAAITSGDSTNYADSVKGRFTISRDNAKNTVYLQMNSLKPEDTAVYYCAAGPSYRPPWLRQGGYDYWGQGTQVTVSS | low polyreactivity |
| QVQLVDSGGGLVQAGGSLRLSCAASGSIFEINAMGWYRQAPGKERELVAVITDSGSTYYEDSVKGRFTISRDNAKNTVDLQMNSLKPEDTAVYYCAAEYSLLFFLMDYWGQGTQVTVSS | low polyreactivity |
| QVQLVESGGGLVQAGGSLRLSCAASGRTFISNAMGWYRQAPGKERELVAAISSVGSTNYADSVKGRFTISRDNAKNTVYLQMKSLKPEDTAVYYCAAGRFWFLAHYGGYYWGQGTQVTVSS | high polyreactivity |
| QVQLVESGGGLVQAGGSLRLTCAASGIIFRVYAMGWYRQATGKERELVAAISQRGGSTYYADSVKGRFTISRDNAKNTVYLLMNSLKPEDTAVYYCAATAPAAAYRARYGYDYWGQGTQVTVSS | high polyreactivity |
| QVQLVESGGGLVQAGGSLRLSCAASGRTFVYNAMGWYRQAPGKERELVAAIDGGGDRTYYADSVKGRFTISRDNAKNTVYLQMNSLKPEDTAVYYCARDPVVTYYYSYPEGDYWGQGTQVTVSS | low polyreactivity |
| QVQLVESGGRLVQAGGSLRLSCAASGSTFSPYTMGCYRQAPGKERELVAGISKSGGRTYYADSVKGRFTISRDNAKNTVYLQMNCLKREVTAVYYCATRSTTDFYCGQGTQVTVSS | high polyreactivity |
| QVQLVESGGGLVQAGGSLRLSCAASGSTFGVYAMGWYRQAPGKERELVAAISSSTGSTYYADSVKGRFTISRDNAMNSVYLQMNSLKPEDTAVYYCDAAGYGKVLGDYWGQGTLVTVSS | low polyreactivity |
| QVQLVESGGGLVQAGASLRLSCAASGSTFHSYAMGWYRQAPGKERELVAAISTSGGSTYYADSVKGRFTISRDNAKNTVYLQMNSLKPEDTAVYYCAAYSISSRMNYWGQGTQVTVSS | high polyreactivity |
| QVQLVESGGGLVQAGGSLRLSCAASGFTFPHYAMGWYRQAPGKERELVARIRWGGGSTYYADSVKGRFTISRDNAKNTVYLQMNSLKPEDTAVYYCARTTSYLTSTRRYYYWGQGTQVTVSS | high polyreactivity |
| QVQHVESVGGLVQAGGSLRLSCAASGITFNYNAMGWYRQAPGKERELVAAIRGSDSTTYYADSVKGRFTISRDNAKNTVYLQMNSLKPEDTAVYYCAAVGVVPRKKSARVYYWGQGTQVTVSS | low polyreactivity |
| QVQLVESGGGLVQAGGSLRLSCAASGSTFYDYAMGWSRQAPGKERELVAAINGNGDSTYYADSVKGRFTISRDNAKITVYLLMNSLKPEDTAVYDCAAYLGWGYDYWGQGTQVTVSS | low polyreactivity |
| QVQLVESGGGLVQAGGSLRLSCAASGSISGIYAMGWYRQAPGKERELVAAISRGGSTNYADSVKGRFTISRDNAKNTVYLQMNSLKPEDTAVYYCAARTAYYPYRQRYYYWGQGTQVTVSS | high polyreactivity |
| QVQLVESGGGLVQAGGSLRLSCAASGSIFWRYAMGRYRQAPGKEREVVAAISGSGVRTSYADSVKGRFTISRDNAKNTVYLQMNSLKAEDTAVYYCATDIRSGRYYWGQGTQVTVSS | high polyreactivity |

| Sequence | polyreactivity (PSR sort gate) |
| --- | --- |
| QVQLVESGGGLVNAGGSLRLSCAASGSIFKYNVMGWYRQAPGKEREMVAAITSRGTSTYYADSVKGRFTISRDNAKNTVYLQMNSLKPEDTAVYYCAADDNYYTFGYWGQGTQVTVSS | high polyreactivity |
| QVQLVESGGGLVQAGGSLRLSCADSGSNFRTYVMGWYRQAPGNERDMVAAITNGISTNYADSVKGRFTISRDNAKNSVYLQMISMKPEDTAVYYCAAGFRSTYYTFRFGYWGQGTQVTVST | high polyreactivity |
| QVQLVESGGGLVQAGGSLRLSCAASGRTFRLYAMGWYRDATGKERELFAAISRRGTSTHYADSVKGRFTISRDNAKNTVYLQMNSLKPEDTAVYYCAVDSNTYSFYGTHDDWGQGTQVTVSS | high polyreactivity |
| QFQLVESGGGLVQARGSLRLSCAASGSIFDLNAMGWYRPAPGKERELVAAISSGGGTYYADSVKGRFTISRDNAKNTVYFQMYSLKPDDSAVYYCAAGKSSPRRIFEYWGQGTEVTVSS | high polyreactivity |
| QVQLVESGGGLVQAGGSLRLSCAASGFTFTSNAMGWYRQAPGKERELVAVISTRGGSTYYADSVKGRFTISRDNAKNTVYLQMNSLKPEDTAVYYCAARQIPNSVLVHYGYWGLGTQVTVSS | high polyreactivity |
| QVQLVESGGGLVQAGGSLRLSCAASGFTFGRYAMGWYRQAPGKERELVAAISFSGGRTYYADSVKGRFTISRDNAKNTVYLQMNSLKPEDTAVYYCAARRRQEHVGRSSYARYDYWGQGTQVTVSS | high polyreactivity |
| QVQLVESGGGLVQAGGSLRLRCAASGRIFWSNAMGWYRQAPGKERELVAAISSGGSTNYADSEKGRFTISRDNAKNTVYLQMNSLKPEDTEVYYCATRGIQRGFSRWGGLDYWGQVTQVTVSS | low polyreactivity |
| QVQVVESGGGLVQAGGSLRLSCAASGFISSYYAMGWYRQAPGKERELVAAITSGGRTYYADSVKGRFTISRDNAKNTVYLQMNSLKPEDTAVYYCAKYSRTKAFDYWGQGTQVTVSS | high polyreactivity |
| QVQLVESGGGLVQAGGSLRLSCAASGRTFNTYAMGWYRQAPGKERELVADISVSGGRTYYADSVKGRFTISRDNAKNTVYLQMNSLKPEDNAVYYCAKRIRYNWTFDYWGQGTQVTVSS | low polyreactivity |
| QVQLVESGGGLVQAGGSLRLSCAASGLIFRPYTMGWYRQAPGKERELVAAINFSGGNTYYADSVKGRFTISRDNAKNTVYLQMNSLKPEDTAVYYCATKSFYGYYYWPYGYWGQGTQVTVSS | low polyreactivity |
| QVQLVESGVGLVQAGGSLRLSCAASGSILDYYVMGWYRQAPGKDRELVAAIRGGGSTYYADSVKGRFTFSRDNEKNTVYLQMNSLKPEDTAVYYCAKDSQTARDFDYSGQGTQVTVSS | low polyreactivity |
| QVQLVESGGGLVQAGGSLRLSCAASGFIFGHNAMGWYRQAPGKERELVADITWSGGSTYYADSVKGRFTISRDNAKNTVYLQMNSLKPEDTAVYYCNARGRASATGRRGRPDPFGYWGQGTQVTVSS | high polyreactivity |
| QVQLVESGGGLVQAGGSLRLSCAASGSIFWLYAMGCYRQAPGKERELVAGISQNGGSTTYADSVKGRFTISRDNAKNTVYFQMNSLKPEDTAVYYCAAKRYGPFKYGYWGQGTQVTVSS | high polyreactivity |
| QVQLEESGGGLVQAGGSLRLSCAASGSISYYYGMGWYRQAPGKERELVAAISTRGGSTYYADSVKGRFTISRDNAKNTVYLQMNSLKPEDTAVYYCNKVYYKRFYYWGQGTQVTVSS | high polyreactivity |
| QVQLVESGGVLVQAAGSLRLSCAASGRIFGYNAMGWYRQAPGSERDFVAAISPSGGSTYYADSLKGLFTISRDNAKITVYLQMNSLKPEDTGVYYCAARIGYRSWAWDAYEYWGQGTQVTVSS | low polyreactivity |
| QVQQQESGGGLVQAGGSLRLSCAASGTIFQLTVMGRYRQAPGKERELVASIDYGGNTNYADSVKGRFTISRDNAKNSVYLQKNSMKPEDTEVYYCEASYESWTTHPYWGQGTQVTVSS | low polyreactivity |
| QVQLVESGGGLVQAGGSLRLSCAASGSTFYGYVMGWYRQAPGKERELVAAITWRGTSTYYADSVKGRFTISRDNAKNTVYLQMNSLKPEDTAVYYCRGYYDRDVDYWGQGTQVTVSS | high polyreactivity |
| QVQLVESGGGLVQEGGSLRLSCAASGRTICLNDMGWYRQAPGKERELVAGITRSGGSTYYADSVKGRFTISRDNAKNTVYLQMNSLKPEDSAVYYCAADFKPLYYDEYDYWGQGTQVTVSS | low polyreactivity |
| QVQLVESGGGLVQAGGSLRLSCAASGGIFYTYAMGWYRQAPGKERELVAAISSSGGSTYYADSVKGRFTISRDNAKNTVYLQMNSLKPEDTAVYYCAKDSSTGAGARRRYGYWGQGTQVTVSS | low polyreactivity |
| QVQLVESGGGLVQAGGSLRLSFAASGRIIRGYAMGRDRQAPGKERELVAAINGGDSTFADSVKGRFTISRDNAKNTVYLQMNSLKPEDTAVYYCAAAHYFLGPQGASFYYWGQGTQVTVSA | low polyreactivity |
| QVHLVESGGGLVQAGGSLRLSCAASGSTFSWYDMGWYRQAPGKERELVAAISTTGSTYYADSVKGRFTISRDNAKNTVYLQMNSLKPEDTAVYYCAADYISIAWYRLFYDYDYWGQGTQVTVSS | high polyreactivity |
